Measurements taken from patent US20180155451A1 (published 2018).

Assays:
Assay in all cases: SPR (Biacore); KD of H240-Kn061/H240-Hl071/L73-k0 divided by KD of the variant
[1] = target: T1, FcgRIIIa V (human, UniProt P08637 17-208)
T1 construct: extracellular domain; also called FcγRIIIa V; not shown: His tag attached to the C terminus
Procedure: (§1) The antibodies were assessed for the binding to each FcgR. […] The resultant value was defined as relative KD, and used as an assessment indicator.
(§2) Analysis of interaction between obj ective antibody and the FcγR was carried out using Biacore T100 (GE Healthcare), Biacore T200, Biacore A100, and Biacore 4000. HBS-EP+ (GE Healthcare) was used as the running buffer, and the measurement temperature was set to 25° C. Chips produced by immobilizing the antigen peptide by the amine coupling method to a Series S sensor Chip CM5 (GE Healthcare), chips produced by allowing preliminarily biotinylated antigen peptides to interact with and immobilize onto a Series S Sensor Chip SA (certified) (GE Healthcare), chips produced by immobilizing Protein L (ACTIGEN, BioVision) to Series S Sencor Chip CM5 (GE Healthcare), or chips produced by immobilizing Protein A/G (Thermo Scientific) to Series S Sencor Chip CM5 (GE Healthcare) were used. Antibodies of interest were captured onto these chips, and allowed to interact to each FcγR diluted with running buffer.

[2] = target: T2, FcgRIIIa F (human, UniProt P08637 17-208)
T2 construct: extracellular domain; also called FcγRIIIa F; 3aF; not shown: His tag attached to the C terminus
Procedure: as §1, §2

[3] = target: T3, FcgRIIb (human, UniProt P31994 43-217)
T3 construct: extracellular domain; also called FcγRIIb; not shown: His tag attached to the C terminus
T3 sequence (looked up): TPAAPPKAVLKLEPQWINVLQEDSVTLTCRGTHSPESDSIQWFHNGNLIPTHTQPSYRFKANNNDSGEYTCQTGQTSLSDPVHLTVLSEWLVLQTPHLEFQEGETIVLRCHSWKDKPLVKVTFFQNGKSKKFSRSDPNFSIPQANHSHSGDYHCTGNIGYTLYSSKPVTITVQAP
Procedure: as §1, §2

T1 sequence (P08637 17-208 F176V limits assumed): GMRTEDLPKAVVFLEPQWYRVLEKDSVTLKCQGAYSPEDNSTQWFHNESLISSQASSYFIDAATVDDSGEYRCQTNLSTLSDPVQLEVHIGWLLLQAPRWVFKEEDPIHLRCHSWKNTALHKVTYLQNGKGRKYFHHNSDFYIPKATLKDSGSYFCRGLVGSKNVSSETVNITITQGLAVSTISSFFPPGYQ
T2 sequence (P08637 17-208): as the sequence (P08637 17-208 F176V limits assumed) above, with V160F counted along it

B1: H240-Kn061 (Y234S)/H240-Hl071/L73-k0 (antibody, human IgG1, kappa)
heavy 1: QDQLVQSGAEVKKPGASVKVSCKASGFNIKDTYIQWVRQAPGQGLEWMGRIDPLRKQTKYREKFEGRVTITADTSTNTAYMELSSLRSEDTAVYYCVRSGREFDYWGQGTLVTVSSASTKGPSVFPLAPSSKSTSGGTAALGCLVKDYFPEPVTVSWNSGALTSGVHTFPAVLQSSGLYSLSSVVTVPSSSLGTQTYICNVNHKPSNTKVDKKVEPKSCDKTHTCPPCPAPESYWGPSVFLFPPKPKDTLMISRTPEVTCVVVDVSDEDPEVKFNWYVDGVEVHNAKTKPREEQYNATYRVVSVLTVLHQDWLNGKEYKCKVSNKALPAPIEKTISKAKGQPREPQVCTLPPSRDELTKNQVSLWCLVKGFYPSDIAVEWESNGQPENNYKTTPPVLDSDGSFFLYSKLTVDKSRWQQGNVFSCSVMHEALHNHYTQKSLSLSP
heavy 2: QDQLVQSGAEVKKPGASVKVSCKASGFNIKDTYIQWVRQAPGQGLEWMGRIDPLRKQTKYREKFEGRVTITADTSTNTAYMELSSLRSEDTAVYYCVRSGREFDYWGQGTLVTVSSASTKGPSVFPLAPSSKSTSGGTAALGCLVKDYFPEPVTVSWNSGALTSGVHTFPAVLQSSGLYSLSSVVTVPSSSLGTQTYICNVNHKPSNTKVDKKVEPKSCDKTHTCPPCPAPELLGGPSVFLFPPKPKDTLMISRTPEVTCVVVDVSHEDPEVKFNWYVDGVEVHNAKTKPREEQYNSTYRVVSVLTVLHQDWLNGKEYKCKVSNDALPMPIEETISKAKGQPREPQVYTLPPSRCELTKNQVSLSCAVKGFYPSDIAVEWESNGQPENNYKTTPPVLDSDGSFFLVSKLTVDKSRWQQGNVFSCSVMHEALHNHYTQKSLSLSP
light: DIQMTQSPSSLSASVGDRVTITCRASQDIHKYIAWYQQKPGQAPRLLIQYTSTLQPGVPSRFSGSGSGTDYTFTISSLQPEDIATYYCLQYEQLRTFGGGTKVEIKRTVAAPSVFIFPPSDEQLKSGTASVVCLLNNFYPREAKVQWKVDNALQSGNSQESVTEQDSKDSTYSLSSTLTLSKADYEKHKVYACEVTHQGLSSPVTKSFNRGEC
Relative KD [1]: 0.9
Relative KD [2]: 0.9
Relative KD [3]: 1

B2: H240-Kn061 (Y235L)/H240-Hl071/L73-k0 (antibody, human IgG1, kappa)
heavy 1: QDQLVQSGAEVKKPGASVKVSCKASGFNIKDTYIQWVRQAPGQGLEWMGRIDPLRKQTKYREKFEGRVTITADTSTNTAYMELSSLRSEDTAVYYCVRSGREFDYWGQGTLVTVSSASTKGPSVFPLAPSSKSTSGGTAALGCLVKDYFPEPVTVSWNSGALTSGVHTFPAVLQSSGLYSLSSVVTVPSSSLGTQTYICNVNHKPSNTKVDKKVEPKSCDKTHTCPPCPAPEYLWGPSVFLFPPKPKDTLMISRTPEVTCVVVDVSDEDPEVKFNWYVDGVEVHNAKTKPREEQYNATYRVVSVLTVLHQDWLNGKEYKCKVSNKALPAPIEKTISKAKGQPREPQVCTLPPSRDELTKNQVSLWCLVKGFYPSDIAVEWESNGQPENNYKTTPPVLDSDGSFFLYSKLTVDKSRWQQGNVFSCSVMHEALHNHYTQKSLSLSP
heavy 2: QDQLVQSGAEVKKPGASVKVSCKASGFNIKDTYIQWVRQAPGQGLEWMGRIDPLRKQTKYREKFEGRVTITADTSTNTAYMELSSLRSEDTAVYYCVRSGREFDYWGQGTLVTVSSASTKGPSVFPLAPSSKSTSGGTAALGCLVKDYFPEPVTVSWNSGALTSGVHTFPAVLQSSGLYSLSSVVTVPSSSLGTQTYICNVNHKPSNTKVDKKVEPKSCDKTHTCPPCPAPELLGGPSVFLFPPKPKDTLMISRTPEVTCVVVDVSHEDPEVKFNWYVDGVEVHNAKTKPREEQYNSTYRVVSVLTVLHQDWLNGKEYKCKVSNDALPMPIEETISKAKGQPREPQVYTLPPSRCELTKNQVSLSCAVKGFYPSDIAVEWESNGQPENNYKTTPPVLDSDGSFFLVSKLTVDKSRWQQGNVFSCSVMHEALHNHYTQKSLSLSP
light: DIQMTQSPSSLSASVGDRVTITCRASQDIHKYIAWYQQKPGQAPRLLIQYTSTLQPGVPSRFSGSGSGTDYTFTISSLQPEDIATYYCLQYEQLRTFGGGTKVEIKRTVAAPSVFIFPPSDEQLKSGTASVVCLLNNFYPREAKVQWKVDNALQSGNSQESVTEQDSKDSTYSLSSTLTLSKADYEKHKVYACEVTHQGLSSPVTKSFNRGEC
Relative KD [1]: 1.5
Relative KD [2]: 1.8
Relative KD [3]: 0.9

B3: H240-Kn061 (Y235F)/H240-Hl071/L73-k0 (antibody, human IgG1, kappa)
heavy 1: QDQLVQSGAEVKKPGASVKVSCKASGFNIKDTYIQWVRQAPGQGLEWMGRIDPLRKQTKYREKFEGRVTITADTSTNTAYMELSSLRSEDTAVYYCVRSGREFDYWGQGTLVTVSSASTKGPSVFPLAPSSKSTSGGTAALGCLVKDYFPEPVTVSWNSGALTSGVHTFPAVLQSSGLYSLSSVVTVPSSSLGTQTYICNVNHKPSNTKVDKKVEPKSCDKTHTCPPCPAPEYFWGPSVFLFPPKPKDTLMISRTPEVTCVVVDVSDEDPEVKFNWYVDGVEVHNAKTKPREEQYNATYRVVSVLTVLHQDWLNGKEYKCKVSNKALPAPIEKTISKAKGQPREPQVCTLPPSRDELTKNQVSLWCLVKGFYPSDIAVEWESNGQPENNYKTTPPVLDSDGSFFLYSKLTVDKSRWQQGNVFSCSVMHEALHNHYTQKSLSLSP
heavy 2: QDQLVQSGAEVKKPGASVKVSCKASGFNIKDTYIQWVRQAPGQGLEWMGRIDPLRKQTKYREKFEGRVTITADTSTNTAYMELSSLRSEDTAVYYCVRSGREFDYWGQGTLVTVSSASTKGPSVFPLAPSSKSTSGGTAALGCLVKDYFPEPVTVSWNSGALTSGVHTFPAVLQSSGLYSLSSVVTVPSSSLGTQTYICNVNHKPSNTKVDKKVEPKSCDKTHTCPPCPAPELLGGPSVFLFPPKPKDTLMISRTPEVTCVVVDVSHEDPEVKFNWYVDGVEVHNAKTKPREEQYNSTYRVVSVLTVLHQDWLNGKEYKCKVSNDALPMPIEETISKAKGQPREPQVYTLPPSRCELTKNQVSLSCAVKGFYPSDIAVEWESNGQPENNYKTTPPVLDSDGSFFLVSKLTVDKSRWQQGNVFSCSVMHEALHNHYTQKSLSLSP
light: DIQMTQSPSSLSASVGDRVTITCRASQDIHKYIAWYQQKPGQAPRLLIQYTSTLQPGVPSRFSGSGSGTDYTFTISSLQPEDIATYYCLQYEQLRTFGGGTKVEIKRTVAAPSVFIFPPSDEQLKSGTASVVCLLNNFYPREAKVQWKVDNALQSGNSQESVTEQDSKDSTYSLSSTLTLSKADYEKHKVYACEVTHQGLSSPVTKSFNRGEC
Relative KD [1]: 1.5
Relative KD [2]: 1.3
Relative KD [3]: 1.2

B4: H240-Kn061 (Y235E)/H240-Hl071/L73-k0 (antibody, human IgG1, kappa)
heavy 1: QDQLVQSGAEVKKPGASVKVSCKASGFNIKDTYIQWVRQAPGQGLEWMGRIDPLRKQTKYREKFEGRVTITADTSTNTAYMELSSLRSEDTAVYYCVRSGREFDYWGQGTLVTVSSASTKGPSVFPLAPSSKSTSGGTAALGCLVKDYFPEPVTVSWNSGALTSGVHTFPAVLQSSGLYSLSSVVTVPSSSLGTQTYICNVNHKPSNTKVDKKVEPKSCDKTHTCPPCPAPEYEWGPSVFLFPPKPKDTLMISRTPEVTCVVVDVSDEDPEVKFNWYVDGVEVHNAKTKPREEQYNATYRVVSVLTVLHQDWLNGKEYKCKVSNKALPAPIEKTISKAKGQPREPQVCTLPPSRDELTKNQVSLWCLVKGFYPSDIAVEWESNGQPENNYKTTPPVLDSDGSFFLYSKLTVDKSRWQQGNVFSCSVMHEALHNHYTQKSLSLSP
heavy 2: QDQLVQSGAEVKKPGASVKVSCKASGFNIKDTYIQWVRQAPGQGLEWMGRIDPLRKQTKYREKFEGRVTITADTSTNTAYMELSSLRSEDTAVYYCVRSGREFDYWGQGTLVTVSSASTKGPSVFPLAPSSKSTSGGTAALGCLVKDYFPEPVTVSWNSGALTSGVHTFPAVLQSSGLYSLSSVVTVPSSSLGTQTYICNVNHKPSNTKVDKKVEPKSCDKTHTCPPCPAPELLGGPSVFLFPPKPKDTLMISRTPEVTCVVVDVSHEDPEVKFNWYVDGVEVHNAKTKPREEQYNSTYRVVSVLTVLHQDWLNGKEYKCKVSNDALPMPIEETISKAKGQPREPQVYTLPPSRCELTKNQVSLSCAVKGFYPSDIAVEWESNGQPENNYKTTPPVLDSDGSFFLVSKLTVDKSRWQQGNVFSCSVMHEALHNHYTQKSLSLSP
light: DIQMTQSPSSLSASVGDRVTITCRASQDIHKYIAWYQQKPGQAPRLLIQYTSTLQPGVPSRFSGSGSGTDYTFTISSLQPEDIATYYCLQYEQLRTFGGGTKVEIKRTVAAPSVFIFPPSDEQLKSGTASVVCLLNNFYPREAKVQWKVDNALQSGNSQESVTEQDSKDSTYSLSSTLTLSKADYEKHKVYACEVTHQGLSSPVTKSFNRGEC
Relative KD [1]: 3.2
Relative KD [2]: 2.2
Relative KD [3]: 0.8
